Experimental data reported in article doi:10.1101/2025.11.10.687516 (bioRxiv, 2025).
Values joined by “and” are separate entries in the source; they are usually repeats but may differ in a detail not shown here. Equal entries are not always repeated. Where two headings read alike, the source gives them in different places.

B1: D-tagatose-1,6-bisphosphate aldolase subunit GatZ (natural protein, E. coli, UniProt P0C8J8 1-420, looked up)
chain: MKTLIARHKAGEHIGICSVCSAHPLVIEAALAFDRNSTRKVLIEATSNQVNQFGGYTGMTPADFREFVFTIADKVGFARERIILGGDHLGPNCWQQENADAAMEKSVELVKEYVRAGFSKIHLDASMSCAGDPIPLAPETVAERAAVLCFAAESVATDCQREQLSYVIGTEVPVPGGEASAIQSVHITHVEDAANTLRTHQKAFIARGLTEALTRVIAIVVQPGVEFDHSNIIHYQPQEAQPLAQWIENTRMVYEAHSTDYQTRTAYWELVRDHFAILKVGPALTFALREAIFALAQIEQELIAPENRSGCLAVIEEVMLDEPQYWKKYYRTGFNDSLLDIRYSLSDRIRYYWPHSRIKNSVETMMVNLEGVDIPLGMISQYLPKQFERIQSGELSAIPHQLIMDKIYDVLRAYRYGCAE
B2: GrxB (natural protein, E. coli, UniProt P0AC59 1-215, looked up)
chain: MKLYIYDHCPYCLKARMIFGLKNIPVELHVLLNDDAETPTRMVGQKQVPILQKDDSRYMPESMDIVHYVDKLDGKPLLTGKRSPAIEEWLRKVNGYANKLLLPRFAKSAFDEFSTPAARKYFVDKKEASAGNFADLLAHSDGLIKNISDDLRALDKLIVKPNAVNGELSEDDIQLFPLLRNLTLVAGINWPSRVADYRDNMAKQTQINLLSSMAI
B3: PhnO (natural protein, UniProt P16691 1-144, looked up)
chain: MPACELRPATQYDTDAVYALICELKQAEFDHHAFRVGFNANLRDPNMRYHLALLDGEVVGMIGLHLQFHLHHVNWIGEIQELVVMPQARGLNVGSKLLAWAEEEARQAGAEMTELSTNVKRHDAHRFYLREGYEQSHFRFTKAL

Key:
[1] = target: the molecule itself; assay: SEC
[2] = target: the molecule itself; assay: SEC; remark: listed apart in the source

Protein | stoichiometry N [1] | stoichiometry N [2]
B1 | 2 and 4 | 
B2 | 2 | 
B3 |  | 2
